Measured values taken from patent publication US20260275304A1, “METHODS AND COMPOSITIONS FOR GLYPHOSATE TOLERANCE IN PLANTS” (Monsanto Technology LLC, priority 2023, published 2026).

Key:
[1] = test system: wild-type S. cerevisiae BY4741; test: Growth of wild-type yeast in glyphosate; type: cell-based, Saccharomyces cerevisiae; conditions: 5 mM and 10 mM glyphosate
Text: Previous research has primarily focused on E. coli as a chassis for selecting improved EPSP synthases. The present example details the development of S. cerevisiae as a model eukaryotic system for glyphosate resistance, thus requiring synthetically addicting this cell to the expression and activity of EPSPS in an effort to create a growth-based selection scheme. Yeast have previously been reported to be resistant to glyphosate.

[2] = test system: S. cerevisiae strain sKR-024; test: Growth of synthetic yeast strain sKR-024 expressing EPSPS variants with or without glyphosate; type: cell-based, Saccharomyces cerevisiae; conditions: for glyphosate tolerance in synthetic yeast host: mutants isolated from directed evolution
Experimental: EPSPS variants were re-cloned into a clean p416-Core1p backbone and transformed into strain sKR-024 as described above. Colonies were then picked in triplicate into YSC-Ura-Leu and outgrown for 2 days at 30° C. Cultures were then diluted back to OD 0.001 in yeast minimal media (YMM) containing varying amounts of glyphosate as indicated. Growth rate measurements were then obtained using an Infinite M200 PRO microplate reader (Tecan, Männedorf, Switzerland) with incubation at 30° C. for 72-120 hours depending on growth rate of selected variants.
To determine if this system could further corroborate observations from previous literature, the well-studied EPSPS mutants T102I and P106S, and the combined double mutant TIPS (T102I-P106S) were generated and complemented into this yeast system. These mutations were reported to result in varying degrees of glyphosate resistance.
Having established low copy number and weak promoter expression of EPSPS variants, it was sought to recharacterize phenotypes under field conditions that are used in planta. […] It has been reported previously that under standard glyphosate foliar application, 0.3 mM or more of glyphosate (gly) can accumulate in a plant's root nodules and meristems. […] These trends support reported literature of mutants P106S and TIPS grown in various plant hosts. As a result, the present synthetic yeast model system closely resembles in planta observations and thus can be used to select for dual-trait EPSPS variants aimed at both enzymatic efficiency and glyphosate resistance.
Select mutants isolated from the final directed evolution campaign with the improved selection strategy were further evaluated in assorted glyphosate concentrations to determine growth characteristics. Mutants isolated from an EPSPS background were evaluated in media containing 0 mM and 0.25 mM glyphosate with the latter being the concentration at which wild-type EPSPS cannot grow after 100 hours. […] The non-glyphosate mono selection highlighted in blue represents mutations resulting from 5 subcultures in 0 mM glyphosate. The low glyphosate dual selection highlighted in light green represents mutants resulting from an additional subculture into 0.5 mM glyphosate. Lastly, the high glyphosate dual selection highlighted in dark green represent mutations isolated after subcultures in increasing levels of glyphosate, up to 10 mM.

transgenic maize plants [3] = test: Greenhouse glyphosate spray test on hybrid (hemizygous) transgenic maize; type: in vivo, Zea mays
Experimental: To further evaluate the performance of EPSPS variants for glyphosate tolerance, transgenic maize plants comprising a single copy of the transgene encoding the EPSPS variants TIPS-P126S-M217L-K296R or TIPS-P126S-K296R were grown to maturity. Homozygous transgenic plants were crossed with an inbred line to produce hybrid seeds.
Plants from the hybrid seeds (hemizygous for the transgenes) of two independent transformation events for each of the two variants were grown in the greenhouse for glyphosate spray test. Roundup® PowerMax3, a commercial formulation of glyphosate, was applied at the third leaf stage at two rates: 1120 gram/hectare (1× the field rate) and 2240 gram/hectare (2× the field rate). The controls included an untreated untransformed control without glyphosate treatment, an untransformed control sprayed with glyphosate, and a TIPS positive control both sprayed with glyphosate. Glyphosate herbicide injury (plant stunting, chlorosis, necrosis, malformation, and death) was assessed by visual inspection of the plants 18 days after herbicide treatment. Herbicide injury rate was presented on a scale of 0 to 100 with “0” being no visible crop injury and “100” being complete crop injury or death.

transgenic maize plants [4] = test: Maize transformation with glyphosate selection, plantlet recovery and quality checks; type: in vivo, Zea mays; conditions: for Number of young plants passing quality control checks: in vivo; for Number of plantlets generated: under glyphosate selection, same amount of starting material
Text: Maize was used as a model system to test the functionality of the EPSPS variants because of detailed previous characterization of glyphosate tolerance in maize and a suitable transgenic plant generation protocol that relies on glyphosate. Plant transformation vectors were generated in which the native maize EPSPS sequence was used, which includes the native gene promoter elements, the native introns and exons and the native 3′ untranslated region and introduced mutations that corresponded to each of the selected amino acid changes. The native sequence was used to mimic as closely as possible how the selected EPSPS variants would perform if the variants were introduced directly in the genome without the help of strong expression elements. The following variants were selected for testing in a transgenic maize system: TIPS (as a control); TIPS-P126S-M217L-K296R; TIPS-P126S-K296R; T102I-P126S-K296R (where only the T102I change is present); P106S-P126S-K296R (where only the P106S change is present); and P126S-K296R (where neither of the TIPS changes are present).
Transgenic maize plants that expressed each of the six EPSPS variants were generated to determine if the variants conferred glyphosate tolerance to plants. The full DNA sequence encoding TIPS EPSPS (SEQ ID NO:1) was cloned from maize genomic DNA. In this sequence, the promoter and 5′ UTR are nucleotides 1:2556; the chloroplast transit peptide sequence is nucleotides 2557:2742; EXON 1 is nucleotides 2743:2856; INTRON 1 is nucleotides 2857:3384; EXON 2 is nucleotides 3385:3626; INTRON 2 is nucleotides 3627:3725; EXON 3 is nucleotides 3726:3879; INTRON 3 is nucleotides 3880:4152; EXON 4 is nucleotides 4153:4367; INTRON 4 is nucleotides 4368:4877; EXON 5 is nucleotides 4878:4995; INTRON 5 is nucleotides 4996:5155; EXON 6 is nucleotides 5156:5366; INTRON 6 is nucleotides 5367:5446; EXON 7 is nucleotides 5447:5508; INTRON 7 is nucleotides 5509:5617; EXON 8 is nucleotides 5618:5836; and the 3′ UTR is nucleotides 5837:6368. Mutations were then introduced into the EPSPS coding sequence in order to produce each of the six EPSPS variants to be tested. These mutated full genomic DNA sequences were then each cloned as a single expression cassette into plant transformation vectors.
Agrobacterium tumefaciens-mediated plant transformation was performed using methods known in the art. Glyphosate selection was used to select for transgenic events containing the transgene of interest and further screened for only those EPSPS variants that provided effective glyphosate tolerance in a plant cell. While all six EPSPS variants began the transformation process with the same amount of starting maize cellular material, there were differences in the number of small plantlets recovered that were capable of being transplanted to greenhouse soil media (Table 4). Transgenic events were further analyzed to determine transgene copy number. Healthy events with single copy of the transgene of interest were grown in the greenhouse soil media. Only three of the six EPSPS variants had more than one plant surviving. Up to twenty-five of these developing R0 plants were transplanted to larger pots and allowed to grow to maturity for seed collection in the greenhouse.

Molecule	growth inhibition [1]	growth in yeast minimal media without glyphosate ([2]; 0 mM glyphosate)	glyphosate tolerance in synthetic yeast host [2]	glyphosate tolerance in synthetic yeast host ([2]; listed as TIPS P126S/M217L/K296R)	tolerance to glyphosate (transgenic maize plants [3]; 2× field rate)	Average Injury At 1120 g/ha (transgenic maize plants [3]; Roundup PowerMax3, 1× field rate, 18 days after treatment, scale of 0 to 100)	Average Injury At 2240 g/ha (transgenic maize plants [3]; Roundup PowerMax3, 2× field rate, 18 days after treatment, scale of 0 to 100)	tolerance to glyphosate (transgenic maize plants [3]; equivalent 1× field dose)	Number of young plants passing quality control checks (transgenic maize plants [4])	Number of plantlets generated (transgenic maize plants [4])
O=C(O)CNCP(=O)(O)O [glyphosate, N-phosphonomethylglycine]	slight growth inhibition	–	–	–	–	–	–	–	–	–
TIPS-P126S-M217L-K296R: maize EPSPS variant, SEQ ID NO:10 (protein, Zea mays) AGAEEIVLQPIKEISGTVKLPGSKSLSNRILLLAALSEGTTVVDNLLNSEDVHYMLGALRTLGLSVEADKAAKRAVVVGCGGKFPVEDSKEEVQLFLGNAGIAMRSLTAAVTAAGGNATYVLDGVSRMRERPIGDLVVGLKQLGADVDCFLGTDCPPVRVNGIGGLPGGKVKLSGSISSQYLSALLMAAPLALGDVEIEIIDKLISIPYVEMTLRLLERFGVKAEHSDSWDRFYIKGGQKYKSPKNAYVEGDASSASYFLAGAAITGGTVTVEGCGTTSLQGDVKFAEVLEMMGARVTWTETSVTVTGPPREPFGRKHLKAIDVNMNKMPDVAMTLAVVALFADGPTAIRDVASWRVKETERMVAIRTELTKLGASVEEGPDYCIITPPEKLNVTAIDTYDDHRMAMAFSLAACAEVPVAIRDPGCTRKTFPDYFDVLSTFVKN	–	high growth in non-glyphosate	high glyphosate tolerance	high glyphosate tolerance (even higher than TIPS)	full tolerance	0	0	excellent tolerance	13	92
P126S-K296R: maize EPSPS variant, SEQ ID NO:14 (protein, Zea mays) AGAEEIVLQPIKEISGTVKLPGSKSLSNRILLLAALSEGTTVVDNLLNSEDVHYMLGALRTLGLSVEADKAAKRAVVVGCGGKFPVEDSKEEVQLFLGNAGTAMRPLTAAVTAAGGNATYVLDGVSRMRERPIGDLVVGLKQLGADVDCFLGTDCPPVRVNGIGGLPGGKVKLSGSISSQYLSALLMAAPLALGDVEIEIIDKLISIPYVEMTLRLMERFGVKAEHSDSWDRFYIKGGQKYKSPKNAYVEGDASSASYFLAGAAITGGTVTVEGCGTTSLQGDVKFAEVLEMMGARVTWTETSVTVTGPPREPFGRKHLKAIDVNMNKMPDVAMTLAVVALFADGPTAIRDVASWRVKETERMVAIRTELTKLGASVEEGPDYCIITPPEKLNVTAIDTYDDHRMAMAFSLAACAEVPVAIRDPGCTRKTFPDYFDVLSTFVKN	–	–	–	–	–	–	–	–	1	11
